The subject of data set [1] is MS2 coat protein. As to the kind of experiment: apparent KD of MS2 coat protein; designed switch direction (-1 OFF switch, 1 ON switch): 1; higher = weaker reporter binding. The procedure, abridged: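 Transcription of designed RNA switches on Illumina chips was done by stalled E. coli RNA polymerase. SNAP-549-labelled MS2 coat protein was then titrated in doubling steps from 0.7 or 1.5 nM to 3 µM, with steps of 0.8–1.5 h at the lowest and 10–20 min at the highest concentration. The per-design median over clusters of curve-fitted normalised fluorescence is reported as apparent KD.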

In data set [2] the test system is MS2 coat protein. Put plainly: apparent KD of MS2 coat protein; higher = weaker reporter binding. Conditions: Eterna round: R107. The procedure, abridged:
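SNAP-549-labelled MS2 coat protein was titrated onto designed RNA switches that had been transcribed on-chip from Illumina sequencing clusters. Amounts doubled from 0.7 or 1.5 nM to 3 µM in 100 mM Tris-HCl pH 7.5, 80 mM KCl, 4 mM MgCl2, with constant ligand or without. Apparent KD is the median per design of normalised cluster binding-curve fits.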

[3] abbreviates: input ligand: microRNA oligo, concentration not stated.
Setting [4] is: Eterna round: R95, input ligand: FMN 200 uM.
Setting [5] is: Eterna round: R95, input ligand: microRNA oligo, concentration not stated.
The mark [6] stands for this setting: Eterna round: R95, input ligand: none.

As for “AAAAAACAUGAGGAUCACCCAUGUCUUUUGACAUGAGGAUAUGUACAGACUUCGGUCUGUACAGAAGGCAUGUAAA [SS1 - 1028] (Eterna round: R96, puzzle: Same State 1)”, the “apparent KD of MS2 coat protein” value in data set [1] (setting [3]) turned out to be 336 nM.
As to “AAAAGAAACACAGGAUAUACCGCACUUAACGCGGUAGAAGGGUGGGACAUGAGGAUCACCCAUGUGGUCUGGGCGCCAGACCGC [Esratean] (Eterna round: R96, puzzle: Same State NG 1)”, the “apparent KD of MS2 coat protein” value is 29.1 nM in data set [1] (input ligand: FMN 200 uM), 23.3 nM in data set [1] (setting [3]) and 22 nM in data set [1] (input ligand: none).
The like results for “AAAAGAAACGCAGGAUAUGCACAUGAGGAUCACCCAUGUCCCACAGGCUCGACCGAGCCCGUGAAGCAGAAGGGUGUAAGAAAA [Redibere] (Eterna round: R96, puzzle: Same State NG 2)” were, in that order, 82.5 nM, 426 nM and 3390 nM.
The matching figures for “AAAAGAACCACAGGAUAUACACUCCUAGCGGCGGUAGAAGGGUGGAACAUGAGGAUCACCCAUGUACGUCUGGAAUCAGACUAA [Radianis] (Eterna round: R96, puzzle: Same State NG 1)”: 267 nM, 233 nM and 857 nM.
“AAAAGACAUGAGGAUCACCCAUGUCAAGACGUGGGAGGAUAUGCAUGGAAAACAUGCUGUGCAGAAGGCCCGUGUC [SS1 - 20] (Eterna round: R96, puzzle: Same State 1)”: the “apparent KD of MS2 coat protein” value in data set [1] (input ligand: FMN 200 uM) worked out at 16.2 nM; in data set [1] (setting [3]) it was 16.6 nM; in data set [1] (input ligand: none), 24 nM.
“AAAAGACAUGAGGAUCACCCAUGUGAAAACGUAGGAGGAUAUGUCGUGAAAAAAGACUUGACAGAAGGCCUGUGUC [SS1 - 34] (Eterna round: R96, puzzle: Same State 1)”: the “apparent KD of MS2 coat protein” value in data set [1] (setting [3]) turned out to be 88.9 nM.
With “AAAAUAUAAAGAGAGGAUAUCCAAAGAACCACAUGAGGAUCACCCAUGUAAAGAAAGAAUAAGUGGGAGAAGGCUCAAAUAAUAA [Designing denovo 24] (Eterna round: R96, puzzle: Same State 2)”, the “apparent KD of MS2 coat protein” value came to 24.8 nM in data set [1] (input ligand: FMN 200 uM), 82.8 nM in data set [1] (setting [3]) and 114 nM in data set [1] (input ligand: none).
The matching figures for “AAACACGGCAAAACGCCGUGACAUGAGGAUCACCCAUGUACACAGGAUAUCAUGGCAAAACACCAUGAGAAGGGUGAUCAAGAC [Zaleala] (Eterna round: R96, puzzle: Same State NG 3)”: 30.7 nM, 26.1 nM and 34.9 nM.
The like results for “AAACAUGAGCGAGGAUAUGCGGACGAUUACGCUGUAGAAGGCGCAUGUAAAACAACAUGAGGAUCACCCAUGUCAUGUACAUGA (Eterna round: R96, puzzle: Same State NG 1)” were, in that order, 81.3 nM, 50.4 nM and 83.6 nM.
As to “AAACAUGAGGAUCACCCAUGUCGAUCAGAACUCUGAUCUGCUCAGGAUAUCCGAAUGCGCGUUUCGGAGAAGGGAGAAAUGUGA [Lareraedqu] (Eterna round: R96, puzzle: Same State NG 3)”, the “apparent KD of MS2 coat protein” value in data set [1] (input ligand: FMN 200 uM) stood at 69.8 nM; in data set [1] (setting [3]) it was 36.4 nM; in data set [1] (input ligand: none) it was 53.2 nM.
On to “AAACCCAGUCUGUAGGAUAUGCACCUGCCGACAUGAGGAUCACCCAUGUACCCUAACAACAGCGUGCAGAAGGGCAGCAAUAAAA [Verilara] (puzzle: Same State 2)”, for which the “apparent KD of MS2 coat protein” value is 19.2 nM in data set [1] (setting [4]), 22.9 nM in data set [1] (setting [5]) and 26.3 nM in data set [1] (setting [6]).
Take “AAACGGCCCAACGGAGGGCCACAUGAGGAUCACCCAUGUACAUAGGAUAUCACGCCAACGAGGCGUGAGAAGGGUGAUUAAAAC [Bisomaor] (Eterna round: R96, puzzle: Same State NG 3)”: the results for the “apparent KD of MS2 coat protein” value in data set [1] (input ligand: FMN 200 uM), in data set [1] (setting [3]) and in data set [1] (input ligand: none) were 28.8 nM, 8.11 nM and 73.5 nM, respectively.
Take “AAACUACAUGAGGAUCACCCAUGUGAAAACCGCAUAGGAUAUCCGCAGCAAUAAACUGACGGAGAAGGGUGACCGG [Sobearcege] (puzzle: Same State 1)”: the entries for the “apparent KD of MS2 coat protein” value in data set [1] (setting [4]), in data set [1] (setting [5]) and in data set [1] (setting [6]) were 306 nM, 414 nM and 549 nM, respectively.
In the case of “AAAGAAACUACAGGAUAUGCGUGGGAAAGAUAGGCAGAAGGGUGGAUAAUAAAUUCCAGCACAUGAGGAUCACCCAUGUACUGG [Ince] (Eterna round: R96, puzzle: Same State NG 1)”, the “apparent KD of MS2 coat protein” value in data set [1] (input ligand: FMN 200 uM) is 17 nM; in data set [1] (setting [3]), 15.6 nM; in data set [1] (input ligand: none) it was 22.7 nM.
As to “AAAGAACAUGAGGAUCACCCAUGUGGAAGAGGCACAGGAUAUCACCUCGCACGUGCGAGGUGAGAAGGGUGAUGGU [Zalecema] (puzzle: Same State 1)”, the entries for the “apparent KD of MS2 coat protein” value in data set [1] (setting [4]), in data set [1] (setting [5]) and in data set [1] (setting [6]) were 122 nM, 80.7 nM and 128 nM, respectively.
Turning to “AAAGCACAUGAGGAUCACCCAUGUGGAAAUAACACAGGAUAUCCGGCCGAAAAUACGGUGGGAGAAGGGUGACCUA [Inxetemama] (puzzle: Same State 1)”, the “apparent KD of MS2 coat protein” value in data set [1] (setting [4]) came to 302 nM; in data set [1] (setting [5]), 60.4 nM; in data set [1] (setting [6]), 86.7 nM.
Take “AAAGCACAUGAGGAUCACCCAUGUGGAAAUAACACAGGAUAUCCGGCCGAAACUAAGGUGGGAGAAGGGUGACCUA [Aeriste] (puzzle: Same State 1)”: the “apparent KD of MS2 coat protein” value in data set [1] (setting [4]) was 191 nM; in data set [1] (setting [5]), 40.2 nM; in data set [1] (setting [6]) it was 73.5 nM.
Take “UUGGAUAUGCGAAGGAGCGGGAAAUAUAUAUAUAUAAUCCUAACAUGAGGAUCACCCAUGUCCCAGGUAGGUCGCGCAUAUUUGG [12.H]”: the “apparent KD of MS2 coat protein” value in data set [2] (input ligand: arginine 13.2 mM) was 48.1 nM; in data set [2] (input ligand: none), 51.7 nM; in data set [2] (input ligand: theophylline 20 uM), 69.3 nM; in data set [2] (input ligand: theophylline 2 mM) it was 70.7 nM; in data set [2] (input ligand: tryptophan 2.4 mM) it was 49.9 nM.

Source of the values: the supplement of paper PMC9170038.
